From US5914109

Legend:
[1] = molecular target: 20-mer V3 peptide of HIVMN (American Bio-Technologies) (HIV-1 strain MN); test: Friguet ELISA method, V3 MN peptide
[2] = molecular target: gp120 of HIVMN (HIV-1 strain MN) (UniProt P05877)
[3] = molecular target: gp120 of HIV-1 isolate RF (HIV-1 isolate RF) (UniProt P04579)
[4] = molecular target: gp120 of HTLV-IIIB (HIV-1 isolate IIIB)
[5] = molecular target: gp120 of HIV-1 isolate AL-1 (HIV-1 isolate AL-1)
[6] = molecular target: gp120 of HIV-1 isolate WMJ-2 (HIV-1 isolate WMJ-2)
[7] = molecular target: gp120 of HIV-1 isolate SF-2 (virus) (HIV-1 isolate SF-2) (UniProt P03378)
[8] = molecular target: V3-SC peptide (HIV-1 isolate SC); test: ELISA on V3 peptide coated plates, mAb at 10 µg/ml
[9] = molecular target: 20-mer V3 peptide of HIVSF2 (HIV-1 isolate SF-2); test: ELISA on V3 peptide coated plates, mAb at 10 µg/ml
[10] = molecular target: V3-NY5 peptide (HIV-1 isolate NY5); test: ELISA on V3 peptide coated plates, mAb at 10 µg/ml
[11] = molecular target: 23-mer peptide of the gp120 V3 loop of the MN strain of HIV-1 (HIV-1 strain MN); test: ELISA on V3 peptide coated plates, mAb at 10 µg/ml
[12] = molecular target: V3-CDC4 peptide (HIV-1 isolate CDC4); test: ELISA on V3 peptide coated plates, mAb at 10 µg/ml
[13] = molecular target: V3-WM52 peptide (HIV-1 isolate WM52); test: ELISA on V3 peptide coated plates, mAb at 10 µg/ml
[14] = molecular target: gp120 of HIVMN (HIV-1 strain MN) (UniProt P05877); remark: listed apart in the source
[15] = molecular target: 20-mer V3 peptide of HIVSF2 (HIV-1 isolate SF-2); test: competition ELISA in solution (Friguet method); reference: the MN peptide
[16] = molecular target: 20-mer V3 peptide of HIVMN (American Bio-Technologies) (HIV-1 strain MN); test: competition ELISA in solution at equilibrium (Friguet method)
[17] = molecular target: 20-mer V3 peptide of HIVSF2 (HIV-1 isolate SF-2); test: as above
[18] = molecular target: 22-mer V3 peptide of HXB2 (HIV-1 HXB2 (IIIB)); test: as above
[19] = molecular target: gp41 of HIVMN (virus) (HIV-1 strain MN)

In the case of human mAb 537-D (antibody), the Kd [1] is reported as 1.3 µM, the neutralization endpoint, MT-4 cell killing assay [2] is reported as 6.25 µg/mL and the neutralization endpoint, MT-4 cell killing assay [3] is reported as > 50 µg/mL. For the same substance, the neutralization endpoint, MT-4 cell killing assay [4] was > 50 µg/mL, the neutralization endpoint, MT-4 cell killing assay [5] was 3.13 µg/mL and the neutralization endpoint, MT-4 cell killing assay [6] was > 50 µg/mL. For the same substance, the neutralization endpoint, MT-4 cell killing assay [7] was > 5 µg/mL, the minimum antigen concentration giving positive results (µg/ml of V3 peptide used to coat) [8] was 1 and the minimum antigen concentration giving positive results (µg/ml of V3 peptide used to coat) [9] was 1. For the same substance, the minimum antigen concentration giving positive results (µg/ml of V3 peptide used to coat) [10] was 0.8, the minimum antigen concentration giving positive results (µg/ml of V3 peptide used to coat) [11] was 0.6 and the minimum antigen concentration giving positive results (µg/ml of V3 peptide used to coat) [12] was 1. The minimum antigen concentration giving positive results (µg/ml of V3 peptide used to coat) [13] was 2, the 50% neutralization, CEM-SS syncytium-forming assay, IgG concentration [14] was 2.69 µg/mL and the 90% neutralization, CEM-SS syncytium-forming assay, IgG concentration [14] was > 10 µg/mL. For the same substance, the fold difference of Kd between the two V3 peptides (MN and SF-2) [15] was 7 fold, the Kd [16] was 1.3 µM and the Kd [17] was 8.5 µM. For the same substance, the Kd [18] was > 100 µM.

human mAb 50-69 (antibody) showed a neutralizing antibody titer (50%), MT-2 plaque assay, 1 hr, no complement (titer (1:x dilution)) [19] of 3 and a neutralizing antibody titer (50%), MT-2 plaque assay, 18 hr with human complement (titer (1:x dilution)) [19] of 3.

human mAb 412-D (antibody) was tested, and the Kd [1] was 9.1 µM, the 50% neutralization, CEM-SS syncytium-forming assay, IgG concentration [14] was 4.69 µg/mL and the 90% neutralization, CEM-SS syncytium-forming assay, IgG concentration [14] was > 10 µg/mL. The Kd [16] was 9.1 µM.
